Assay: yeast display, Sf9 membrane polyspecificity reagent, FACS + sequencing; frameworks hold sequencing errors
How it was run: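 Galactose induction of a Saccharomyces cerevisiae BJ5465 synthetic nanobody display library ran 36–48 hours. The cells were then stained for 1 hour at 4 °C with 10% biotinylated, detergent-solubilized Sf9 membrane reagent, pulled down on streptavidin microbeads and FACS-sorted into low and high (top ~1%) gates on expression and reagent-binding fluorescence. Labels for polyreactivity follow the gate of origin.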

Row | Sequence | polyreactivity (PSR sort gate)
1 | QVQLVESGGGLVQAGGSLRLSCAASGRIFSYYAMGWYRQAPGKEREMVAAISGNGGSTYYADSVKGRFTISRDNAKNTVYLQMNSLKPEDTAVYYCAADWWSSDWAYLYPYSYDYWGQGTQVTVSS | low polyreactivity
2 | QVQLVESGGGLVQAGVRLRLSCAASGITFYINAMGGYRQAPGKERELVAVIDSRGSSTFYADSVKGRFTISRDTAKNTVYLQMNSLKPEDTAVYYCAAEAPSWYDRQYDYCGQGTQVTVSS | low polyreactivity
3 | QVQLVESGGGLVQAGGSLRLSCAASGSTFLSYAMGWYRQAPGKERELVAVISWSGVSTYYADSVKGRFTISRDNAKNTVYLQMNSLNPEDTEVYYCNTGHHYIRTYGYWGQGTQVTVSS | low polyreactivity
4 | QVQLVESGGGLVQAGGSLRLSCPASGSIFQYYAMGWYRQAPGKERELVAAISSGGRTNYADSVKGRFTISRDNAKNTVYLQMNSLKPEATAVYYCAAARYYYQVYRWEYDYWGQGTQVTVSS | high polyreactivity
5 | QVQHEESGGGLVQAGGSLRLSCAASGRIFPVNAMGWSRKAPGKERELLAAITRNGGSTYYADSVKGRFTISRDNAKNTVYLQMNSLKPEDTAVSYCAVRVVYGPAWAKMYYWGQGTQVTVSS | high polyreactivity
6 | QVQLVESGGGLVQAGGSLRLSCAASGIGHNAMGWYRQAPGKERELVAAISSSGGRTYYADSVKGRFTISRDNAKNTVYLQMNSLKPEDTAVYYCARRAVYGIFDYWGQGTQVTVSS | high polyreactivity
7 | QVQLVESGGGLVQAGGSLRLSCAASGFTFYYYAMGWYRQAPGKESELVAAITWSGDITSYADSVKGRFTISRDNAKNTVYLQMNSLKPEDTAVYYCAAYVYVPGYNAAYDYWGQGTQVTVSS | low polyreactivity
8 | QVQLVESGVGLVQAGGSLRLSSDASGSIFGTYAMGWYRQAPGKERELVAAITGNGGRTYYADSVKGRFTISRDNAKNTVYLQMHSLKAEDTAVYSCAISSSRGGFYYWGQGNQVTVSS | high polyreactivity
9 | QVQLVESGGGLVQAGGSLRLSCSATGLTFRPYAMGWYRQAPGTERELVAGITRGGSTKYADSVKGRFTISRDNAKNTVYLLMISLKPEDTAVYYCAVERGSYSYDRPFYYWGQGTQVTVSS | high polyreactivity
10 | QVQLVESGGGLVQAGGSLRLICAASGRTFYIYTMGWYREAPGKERELVAAISSSGDSTYYADSLKGRFTISRDNAKNTVYLQMNSLKPEDTAVYYCAAYPTYPDEYWGEGTQVTVSS | low polyreactivity
11 | QVQLVESGGGLVQAGGSLRLSCAASGITFYSYAMGWYRQAPGKERELVAAINRSGGSTYYADSVKGRFTISRDNAKNTVYLQMNSLKPEDSAVYYCAAEEGRVFSGGYDYWGQGTQVTVSS | high polyreactivity
12 | QVQLVESGGGLVQAGGSLRLSCAASGSIFRGYAMGWYRQAPGKERELVAAITSSGARTFYADSVKGRFTISRDNAKNTVYFLMKSLRPEDTAVYYCDAVSANQDFDSWGQGTQVSVSS | high polyreactivity
13 | QVQLVETGGGLVQAGGSLRLSCAASGRIFHLYAMGWYRQAPGKERELVAAITFSGGSTYYADSVKGRFTISRDTAKNTVYLQMNSLKPEDTAVYYCAKRSFYWFSSRLPFKYDYWGQGTQVTVSS | low polyreactivity
14 | QVQLQESGGGLVQAGGSLRLSCAASGYISAGRQMGWYRQAPGKEREFVATINGGATTNYADSVKGRFTISRDNAKNSVFLQMNSLKPEDTAVYYCAAVIWYVQDYSYWGQGAQVTVSS | high polyreactivity
15 | QVQLVDSGGGLVQAGGSLRLSCAASGSIFSKYAMGGYRQAPGKERELVAAISGSGVSTYYADSVKGRFTISRDNAKNTVFLQMNSLKTEDTAVYYCNARGSFHQPRYGYWGQGTQVTVSS | high polyreactivity
16 | QVQLVESGGGLVQAGGSLRLSCAASGRIFYPYFMGWYRQAPGKERELVAAISASGGRTYYADSVKGRFTISRDNSKNTVYLQMNSLKPEDTAVYYCNARTVPAGTLYDYWGQGTQVTVSS | low polyreactivity
17 | QVQLVESGGGLVQAGGSRRLSCAASGNTFYANVMGWYRQAPGKERELVASITWSGGSTYYADSVKGRFTISRDNAKNTVYLQMNSLKPEDTAVYYCATSGDRLVWGQGTQVTVSS | low polyreactivity
18 | QVQLVESGGGLVQAGGSLRLSCAASGRIFPTNAMGWYRQAPGKERELVASIDSGGSTKYADSVKGRFTISRDNAKNTVDLQMNSLKPEDTTVYYRALQVLNYDYWGQGTQVTVSS | low polyreactivity
19 | QVQLVESGGGLVQAGGSLRLSCAASGRIFYGYAMGWYRQAPGKERELVAAISKSGTRTYYADSVKGRFTISRDNAKNTVYLQMNSLKPEDTAVFYCNARGYPYDTYNEYYYWGQGTQVTVSS | high polyreactivity
20 | QVQLVESSGGLVQAGGRLRLSCAASGSTFRGNAMGWYRQAPGKERELVAAITGSGGRTYYADSVKGRFTISRDNAKNTVYLQMNSLKPEDTAVYYCAARTPNIGGIYGYWGQGTQVSVSS | high polyreactivity
21 | QVQLLESGGGLVQAGGSLRLSCVASGGILSSNAMGWYRQAPGKERELVAAISSGGSTNYADSVKGRFTISRDNAKNTVYLQMNSLKPDDTAVYYCAADSKIGSFDSWGQGTQVNVSS | low polyreactivity
22 | QVQLVESGGGLVQAGGSLRLICAASGFTFPVYARGWYRQAPGKERELVAAISSSGGTTYYADSVKGRFTISRDNAKNTVYLQMISLKPEDTAVYYCNAYYGSTAYGYDYWGQGTQVTVSS | low polyreactivity

Row | Sequence | polyreactivity (PSR sort gate)
23 | QVQLVESGGGLVQAGGSLRLSCAASGSTFGWYVMGWYRQAPGTERELVASITGSGGSTYYADSVKGRFTISRDNAKNTVYLQMNSLKPVDSAVYYCGADTGWYDDWTHDYWGQGTQVTVSS | low polyreactivity
24 | QVQLVESGGGLVQAGGSLRLSCAASGRTGYMGWYRQAPGKERELVAAITSRGGSTYYADSVKGRFTISRDNAKNTVYLQMNSLKPEDTAVYYCAAPAYHKRTSRGDYWGQGTQVTVSS | low polyreactivity
25 | QVQLVESGGGLVQAGGSLRLSCAASGYIFYYNAMGWYRQAPGKERELVAVISRTGASTYYADSVKGRFTISRDNAKNTVYLQMNSLKPEDTAVYYCAVRYETVDGNWRYFYWGQGTQVTVSS | high polyreactivity
26 | QVQLVESGGGLVQAGGSLRLSCAASGSIFTPYAMVWYRQAPGQERELVAAITSGGSTYYADSVKGRFTISRDNAKNTVYLQMNSLKPEDTAVYYCARRVWNYLRRSWYDYWGQGTQVTVSS | high polyreactivity
27 | QVQLVESGGGLVQAGGSLRLSCAASGFIFGTYAMGWYRQAPGKERELVAAITGSGGDTYYADSVKGRFTISRDNAKNTVYLQMNSLKPEDTAVYYCAAVRPPTPSRRREDYWGQGTQVTVSS | low polyreactivity
28 | QVNLVESGGGLVLAGGSLRLSCAASGVTYGNNAMGWYRQAPGKEREFVATISRRGGSTYYADSVMGRFTISRDNAKNTVYLQMNRLKPEDTAVYYCDVDRAGIKFAAGYDYWGQGTQVTVSS | high polyreactivity
29 | QDQLVESGGGLVQAGGSLRLTCAASGFIFDRNTMGLYRQATGNDTELVAAISRSGGSTYYSDSVNGRFTISRDNAKNTVYLQMNSMKPEDTAVYNCGALYYYRNRSYYYWGQGTHVTVSS | high polyreactivity
30 | QVQLVESGGGLVQAGGSLRLSCAASGRTIGIYAMGLYRQAPGKERELVAAITWSGDSTYYADSVKGRFTISRDNAKNTVYLQMNSLKPEDTAVYYCAAYYLYRYQTMGYWGQGTLVTVSS | low polyreactivity
31 | QVQLVESGGGLVQAGGSLRLSCAASGRIFGYYAMEWNRQAPGKERELVATITFGGGSTYYADSVKGRFTISRDKAKNTVYLQMNSLKPEDTAVSFCAAEGVHYDGDYGTGYDYWGQCTQVTVSS | low polyreactivity
32 | QVQLVASGGGLVQAGGSVRLSCAASGFIVNYYAMGWYRQAPGKEGELLAAISSGGSTYYADSVKGRFTISRDNAKNTVYLQMNSLKPEDTAVYYCAARYTDLRLARYYYDYYYWGQGTQVTVSS | high polyreactivity
33 | QVQLVESGGGLVQAGGSLRLSCAASGRTFRLYAMGWYRQAPGKERELVAAITENGGSTYYADSVKGRFTISRDNAKNTVYLQMTSLKPEDTAVYYCAAKRYSRYNYWGQCTQVTVSS | high polyreactivity
34 | QVQLVESGGGLVQAGGSLRLSCVASGSILAYYAMGWYRQAPGKERELVAAISRSGGSTYYADSVKRRFTISRDNAKNTVNLQMNSLKPEDTAVYYCAADFRRWQYNTVNEFGYWGQGTQVTVSS | high polyreactivity
35 | QVQLVDSAGGLVQAGGSLRLSCAASGRTYVVNTRGWSRQAPGKERELVASISSGTTNYADSVKGRFTISRDNAKNTVYLQMNSLKPVDTAVYYCNTDGGDHPTARYGYWGQGTQVTVSS | high polyreactivity
36 | QVQLVESGGGLVQAGGSLRLSCAASGFIFYDYAMGWYRQATGKERELVAGITDSGGSTSYADSVKGRFTISRDNAKNTDYLQMNSLKPEDTAVYYCAADNYVRAGINYDYWGQGTQVTVSS | low polyreactivity
37 | QVQLVESGGGLVQAGGSLRLSCAASGYIFYNAMGSYRQAPGKERELVAAISSSGGTTYADSVKGRFTISRDNAKNTVYLQMNSLKPEDTAVYYCAARSEFYWGWEYITYDYWGQGTQVTVSS | low polyreactivity
38 | QVQLVESGGGLVQAGGSLRLSCAASGGTFKTNAMGWYRQAPGKERELVAAITGSGTSTYYADSVKGRFTISRDNAKYTVYLQMNSLKPEDTAVYYCAADKLYQPGIGDDYWGQGTQVTVSS | low polyreactivity
39 | QVQLEESGGGLVQAGGSLRLSCAASGLTLGRYAMGWYRPAPGKERELVAVITGGGSTNYADSVKGRFTISRDNAKNTVYLQMNSLKPEDTAVYYCAVRGGIFQTLSTWYRYYYWGQGTQVTVSS | high polyreactivity
40 | QVQLVESGGGLVQAGGSLRLSSAASGRTFSSYAMGWYRQAPGKERELVAAINWSGASTYYADSVKGRFTISRDNAKNTVYLQMNSLKPEDTAVYYCAKSLYVGKYWQIRSSVDYWGQGTQVTVSS | low polyreactivity
41 | QVQLVESGGGVVQAGGSLRLSCAASGGIILEYVMGWYRQARGEERELVAAISWSGTSTYYADSVKGRFTISRDNAKNTVYLQMNSLKPEDTAVYYCAKSEGVYSGWYGVDDYDYWGQGTQVTVSS | low polyreactivity
42 | QVQLVESGGGLVQAGGSLRLSCAASGLTFGGYAMGWYRPAPGKERELVAAISWSGGRTYYADSVKGRFTISRDNAKNTVYLQMNSLKPEDTAVYYCAARKLVVNLREDYWGQGTQVTVSS | high polyreactivity
43 | QVQLVESGGGLVQAGGSLRLSCAASGFTFYSNDMGWYRQAPGKERELVAAISYSGGSTYYADSVKGRFTISRDNAKNTVYLQMKRLNPEDTAVYYCAAGGLQQGDYWGQGTQVTVSS | low polyreactivity

From the nanobody polyreactivity screen of Harvey et al. (2022)
